From patent US20240116985A1 (published 2024)
Starred links: 1 amine or outer side, 2 acyl side, 3 side chain; linkers in the order of their positions; H or OH if unused. Positions of bridges follow the written chain, without caps; N, C: chain ends. Non-standard residues stand in square brackets, D forms with d. Primed or numbered codes have the meaning given here. No end group written: not given here. *: point of attachment. PyrS2″ = (S)-3-amino-1-((pent-4-en-1-yloxy)carbonyl)pyrrolidine-3-carboxylic acid (stapling residue), C=CCCCOC(=O)N1CC[C@@](N[*:1])(C(=O)[*:2])C1; B5(16) = 2-amino-2-(pent-4-en-1-yl)hept-6-enoic acid = 2,2-bis(4-pentenyl)glycine (stitching residue), C=CCCCC(CCCC=C)(N[*:1])C(=O)[*:2]; B5(4) = 2,2-bis(4-pentenyl)glycine = 2-amino-2-(pent-4-en-1-yl)hept-6-enoic acid (stitching residue), C=CCCCC(CCCC=C)(N[*:1])C(=O)[*:2]; (CH2NMe2)4SEF = (S)-2-amino-3-(4-(3-(dimethylamino)prop-1-yn-1-yl)phenyl)propanoic acid, CN(C)CC#Cc1ccc(C[C@H](N[*:1])C(=O)[*:2])cc1; TfeGA = (S)-2-amino-3-((carboxymethyl)(2,2,2-trifluoroethyl)amino)propanoic acid, O=C([C@H](CN(CC(=O)[*:3])CC(F)(F)F)N[*:1])[*:2]; PyrS2 = (S)-3-amino-1-((pent-4-en-1-yloxy)carbonyl)pyrrolidine-3-carboxylic acid, C=CCCCOC(=O)N1CC[C@@](N[*:1])(C(=O)[*:2])C1; B5(3) = 2,2-bis(4-pentenyl)glycine (stitching residue), C=CCCCC(CCCC=C)(N[*:1])C(=O)[*:2]; Phe(2-Cl) = N[C@@H](Cc1ccccc1Cl)C(=O)O; Bta = N[C@@H](Cc1csc2ccccc12)C(=O)O; αAllylPro = C=CC[C@@]1(C(=O)O)CCCN1; tBuAla = CC(C)(C)C[C@H](N)C(=O)O; Cha = N[C@@H](CC1CCCCC1)C(=O)O; S8 = C=CCCCCCC[C@](C)(N)C(=O)O; Phe(ol) = N[C@H](CO)Cc1ccccc1; NH(CH2)6NH2 = NCCCCCCN*

T1: Bcat-Halo (beta-catenin HaloTag construct transfected into HEK293 cells) (UniProt P35222 1-781)
T1 sequence (looked up): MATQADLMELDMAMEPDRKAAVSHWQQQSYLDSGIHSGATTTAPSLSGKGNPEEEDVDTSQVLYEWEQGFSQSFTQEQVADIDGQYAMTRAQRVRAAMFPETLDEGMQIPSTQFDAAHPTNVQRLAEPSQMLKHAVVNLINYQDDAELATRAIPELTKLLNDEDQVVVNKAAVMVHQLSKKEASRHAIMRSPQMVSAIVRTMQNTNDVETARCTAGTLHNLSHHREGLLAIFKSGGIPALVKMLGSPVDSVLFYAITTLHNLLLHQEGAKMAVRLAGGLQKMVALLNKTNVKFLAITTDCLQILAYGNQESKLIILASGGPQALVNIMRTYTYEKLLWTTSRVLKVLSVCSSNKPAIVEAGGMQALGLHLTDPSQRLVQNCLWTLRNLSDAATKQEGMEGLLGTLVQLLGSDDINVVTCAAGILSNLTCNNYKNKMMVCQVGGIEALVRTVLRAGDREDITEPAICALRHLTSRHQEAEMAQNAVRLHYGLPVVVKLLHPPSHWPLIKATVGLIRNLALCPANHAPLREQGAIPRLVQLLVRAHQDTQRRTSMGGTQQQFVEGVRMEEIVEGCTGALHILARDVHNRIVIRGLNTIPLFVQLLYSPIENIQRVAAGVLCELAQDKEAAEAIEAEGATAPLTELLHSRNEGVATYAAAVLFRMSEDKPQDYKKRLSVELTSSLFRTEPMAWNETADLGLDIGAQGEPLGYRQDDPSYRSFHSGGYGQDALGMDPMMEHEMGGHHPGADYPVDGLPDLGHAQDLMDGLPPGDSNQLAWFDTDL

T2: B-cat-Halo (UniProt P35222 1-781)
T2 sequence (looked up): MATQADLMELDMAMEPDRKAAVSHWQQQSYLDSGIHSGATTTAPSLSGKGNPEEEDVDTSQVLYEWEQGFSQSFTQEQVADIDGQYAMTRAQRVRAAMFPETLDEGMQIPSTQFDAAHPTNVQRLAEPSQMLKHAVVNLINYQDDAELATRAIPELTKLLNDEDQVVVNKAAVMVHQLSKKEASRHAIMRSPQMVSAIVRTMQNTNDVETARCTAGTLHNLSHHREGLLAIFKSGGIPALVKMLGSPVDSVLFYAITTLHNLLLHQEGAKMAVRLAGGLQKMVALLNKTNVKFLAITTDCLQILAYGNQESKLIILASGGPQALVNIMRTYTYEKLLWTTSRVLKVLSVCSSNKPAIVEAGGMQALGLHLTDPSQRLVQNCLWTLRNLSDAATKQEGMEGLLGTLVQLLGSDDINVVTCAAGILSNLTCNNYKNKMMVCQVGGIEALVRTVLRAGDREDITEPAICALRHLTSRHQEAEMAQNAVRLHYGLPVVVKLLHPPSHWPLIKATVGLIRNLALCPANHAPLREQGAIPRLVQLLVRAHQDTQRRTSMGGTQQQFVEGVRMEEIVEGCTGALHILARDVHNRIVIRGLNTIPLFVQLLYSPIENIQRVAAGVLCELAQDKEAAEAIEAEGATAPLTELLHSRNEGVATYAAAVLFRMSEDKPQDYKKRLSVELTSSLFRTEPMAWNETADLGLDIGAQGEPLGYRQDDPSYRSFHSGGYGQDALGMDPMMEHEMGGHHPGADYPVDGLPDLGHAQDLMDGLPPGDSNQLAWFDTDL

T3: B-cat-Halo (beta-catenin HaloTag NanoBRET construct expressed in HEK293 cells) (UniProt P35222 2-781)
T3 sequence (looked up): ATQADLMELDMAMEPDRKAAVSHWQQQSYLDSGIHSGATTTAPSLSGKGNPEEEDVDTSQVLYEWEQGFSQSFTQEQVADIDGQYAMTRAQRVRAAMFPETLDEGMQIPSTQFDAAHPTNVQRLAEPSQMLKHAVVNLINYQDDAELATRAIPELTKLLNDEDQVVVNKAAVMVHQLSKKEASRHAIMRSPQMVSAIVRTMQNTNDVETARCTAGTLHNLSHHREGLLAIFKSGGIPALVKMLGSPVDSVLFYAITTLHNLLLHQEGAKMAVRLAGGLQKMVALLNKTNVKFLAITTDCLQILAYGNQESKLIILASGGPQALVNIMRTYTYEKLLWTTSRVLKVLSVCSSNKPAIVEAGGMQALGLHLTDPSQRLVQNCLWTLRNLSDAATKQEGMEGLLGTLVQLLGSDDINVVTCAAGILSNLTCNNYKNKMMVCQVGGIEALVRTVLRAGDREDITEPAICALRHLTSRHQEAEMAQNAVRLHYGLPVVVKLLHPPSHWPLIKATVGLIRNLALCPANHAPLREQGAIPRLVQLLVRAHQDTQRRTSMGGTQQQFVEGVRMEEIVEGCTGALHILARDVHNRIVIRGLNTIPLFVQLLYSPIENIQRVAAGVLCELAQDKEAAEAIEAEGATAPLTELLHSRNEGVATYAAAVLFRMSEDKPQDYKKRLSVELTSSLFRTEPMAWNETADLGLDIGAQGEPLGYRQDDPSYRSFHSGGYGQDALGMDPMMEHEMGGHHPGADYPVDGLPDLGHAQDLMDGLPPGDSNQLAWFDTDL

B1: I-1467 (peptide)
peptide: Ac-[αAllylPro]D[tBuAla][B5(4)]DD[(CH2NMe2)4SEF]AFL[PyrS2]F[Bta]Q
modifications: staple 1-4, 4-11
B2: I-1046 (peptide)
peptide: Ac-[αAllylPro]D[Cha][B5(16)]DDAAFN[PyrS2″][Phe(2-Cl)][Bta]S-NH2
modifications: staple 1-4, 4-11
B3: I-1050 (peptide)
peptide: Ac-[αAllylPro]D[Cha][B5(4)]DDAAFS[PyrS2][Phe(2-Cl)][Bta]S-NH2
modifications: staple 1-4, 4-11
B4: I-1048 (peptide)
peptide: Ac-[αAllylPro]D[Cha][B5(4)]DDAAFT[PyrS2″][Phe(2-Cl)][Bta]S-NH2
modifications: staple 1-4, 4-11
B5: I-1061 (peptide)
peptide: Ac-[αAllylPro]D[tBuAla][B5(4)]D[TfeGA]AAFT[PyrS2][Phe(2-Cl)][Bta]Q-{NH(CH2)6NH2}
modifications: staple 1-4, 4-11
B6: I-1062 (peptide)
peptide: Ac-[αAllylPro]D[tBuAla][B5(4)]DDAAFL[PyrS2″][Phe(2-Cl)][Bta]Q-NH2
modifications: staple 1-4, 4-11
B7: I-1086 (peptide)
peptide: Ac-[αAllylPro]D[tBuAla][B5(3)]DDAAFT[S8][Phe(2-Cl)][Bta]Q-NH2
modifications: staple 1-4, 4-11; also: earlier eluting staple isomer
B8: I-1072 (peptide)
peptide: Ac-[αAllylPro]D[tBuAla][B5(4)]DDAAFL[PyrS2″]F[Bta]Q-NH2
modifications: staple 1-4, 4-11
B9: I-1091 (peptide)
peptide: Ac-[αAllylPro]D[tBuAla][B5(3)]DEAAFT[S8][Phe(2-Cl)][Bta]T-NH2
modifications: staple 1-4, 4-11
B10: I-1089 (peptide)
peptide: Ac-[αAllylPro]D[tBuAla][B5(3)]DEAAFT[S8][Phe(2-Cl)][Bta]Q-NH2
modifications: staple 1-4, 4-11; also: later eluting staple isomer
B11: I-1092 (peptide)
peptide: Ac-[αAllylPro]D[tBuAla][B5(3)]DDAAFT[S8][Phe(2-Cl)][Bta][dT]-NH2
modifications: staple 1-4, 4-11
B12: I-1083 (peptide)
peptide: Ac-[αAllylPro]D[tBuAla][B5(3)]DDAAFN[PyrS2″][Phe(2-Cl)][Bta][Phe(ol)]
modifications: staple 1-4, 4-11
B13: I-1090 (peptide)
peptide: Ac-[αAllylPro]D[tBuAla][B5(3)]DDAAFT[S8][Phe(2-Cl)][Bta]T-NH2
modifications: staple 1-4, 4-11
B14: I-1079 (peptide)
peptide: Ac-[αAllylPro]D[tBuAla][B5(4)]DDAAFN[PyrS2″][Phe(2-Cl)][Bta]Q-NHEt
modifications: staple 1-4, 4-11
B15: I-1088 (peptide)
peptide: Ac-[αAllylPro]D[tBuAla][B5(3)]DEAAFT[S8][Phe(2-Cl)][Bta]Q-NH2
modifications: staple 1-4, 4-11; also: earlier eluting staple isomer

target: T1, Bcat-Halo (beta-catenin HaloTag …); test: cell-based or functional assay

B1 was tested, and the “NanoBRET Abs IC50” value was 9.6 µM.

target: T2, B-cat-Halo; test: cell-based or functional assay

B2 and B3 are within 1.5-fold of each other in “NanoBRET Abs IC50” value: 20.5 µM for the first, 24.8 µM for the second.

B4 and B5 are within 1.5-fold of each other in “NanoBRET Abs IC50” value: 8.8 µM for the first, 10.3 µM for the second.

B6 was tested, and the “NanoBRET Abs IC50” value was 4.7 µM.

target: T3, B-cat-Halo (beta-catenin HaloTag …); test: cell-based or functional assay

B7 and B8 are within 1.5-fold of each other in “NanoBRET Abs IC50” value: 10.1 µM for the first, 10.5 µM for the second.

B9 and B10 are within 1.5-fold of each other in “NanoBRET Abs IC50” value: 11.4 µM for the first, 8.9 µM for the second.

Compared with B11, B12 is 2.4-fold higher in “NanoBRET Abs IC50” value: 7.7 µM for the first, 18.8 µM for the second.

Compared with B13, B14 is 3.2-fold higher in “NanoBRET Abs IC50” value: 6.1 µM for the first, 19.7 µM for the second.

In the case of B15, the “NanoBRET Abs IC50” value is reported as 6.3 µM.
